The target in this test is Xenopus laevis ERCC1 (Xenopus laevis (endogenous in egg extract)). Put plainly: immunodepletion.

Substance Xenopus laevis SLX4 (natural protein) displayed a percent of SLX4 co-depleted of 90%.

Values taken from PMC5067070.
